The target in the assay is T1, VapC4 toxin (Saci_1813) with a C-terminal histidine tag (Sulfolobus acidocaldarius DSM639, UniProt Q4J7W2 1-140, FITC (Alexa-488) fluorescent probe, site not stated, F/P ratio approximately 0.5 (in the FRET assay only)).
T1 construct: also called Saci VapC4; pAG153; not shown: His tag, C-terminal, kept
T1 sequence (looked up): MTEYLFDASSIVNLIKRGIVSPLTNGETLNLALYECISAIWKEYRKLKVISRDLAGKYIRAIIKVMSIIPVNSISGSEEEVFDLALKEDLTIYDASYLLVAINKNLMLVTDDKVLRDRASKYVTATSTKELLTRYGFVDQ
Nature of the assay: FRET or BRET; FITC-labelled VapC4 (100 nM, donor) titrated with TRITC-labelled VapB4 (25-2,000 nM, acceptor); excitation 495 nm, FITC emission at 520 nm, 60°C; fit to a hyperbolic binding equation. The following applies: both partners purified. (In general: In BRET a luciferase serves as donor, and the signal depends on an acceptor being close.)

B1: VapB4 antitoxin (Saci_1812) with a C-terminal histidine tag (natural protein, Sulfolobus acidocaldarius DSM639, UniProt Q4J7W4 1-77, looked up)
chain: MDSSGYVTISAKVPRELKELMDKYGIKPGPVIRKALEEEVRRRAIQELEKELKDLKEKSQISDEDVARLIREDRESR
modifications: TRITC (Alexa-532) fluorescent probe, site not stated, F/P ratio approximately 0.5 (in the FRET assay only)
notes: Unlabelled in the RNase neutralisation assay, TRITC-labelled in FRET; also called pAG154; source: E. coli BL21(DE3)-RIL, purified (Ni2+-NTA, dialysis)
By Kd is commonly meant the equilibrium constant for the complex coming apart. Take B1: the Kd came to 40 ± 2.2 nM.
